Measured values from PMC4897736, “Structural and biochemical characterization of the cell fate determining nucleotidyltransferase fold protein MAB21L1” (Scientific Reports, 2016).
One block for each molecule: values may come before it.

Columns and labels:
MAB21L1 [1] = target: T1, MAB21L1 (Homo sapiens, UniProt Q13394); assay: co-crystal structure ([…] Å), ITC, thermal shift; assay type: binding
T1 construct: full length
T1 sequence (Q13394 1-359): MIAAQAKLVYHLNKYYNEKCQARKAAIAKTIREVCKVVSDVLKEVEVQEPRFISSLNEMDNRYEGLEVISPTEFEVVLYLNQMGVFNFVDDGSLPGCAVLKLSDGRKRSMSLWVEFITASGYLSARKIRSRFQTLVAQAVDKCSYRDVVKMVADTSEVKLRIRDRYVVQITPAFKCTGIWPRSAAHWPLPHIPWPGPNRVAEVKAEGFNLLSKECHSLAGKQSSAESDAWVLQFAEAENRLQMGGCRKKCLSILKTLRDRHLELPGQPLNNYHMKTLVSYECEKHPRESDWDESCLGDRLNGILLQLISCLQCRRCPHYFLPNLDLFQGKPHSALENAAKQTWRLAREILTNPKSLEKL

MAB21L1 [2] = target: T1, MAB21L1; assay: ITC, thermal shift; assay type: binding
MAB21L1 [3] = target: T2, MAB21L1 (Homo sapiens, UniProt Q13394 1-359); assay: EMSA; 0.5 uM nucleic acid; EMSA: 20 mM Tris pH 8.0, 200 mM NaCl, 30 min on ice, 1% agarose gel, Gel-Red stain; settings: protein: recombinant; tags: His-MBP tag removed by TEV; label: none (Gel-Red stain); single strand
T2 sequence: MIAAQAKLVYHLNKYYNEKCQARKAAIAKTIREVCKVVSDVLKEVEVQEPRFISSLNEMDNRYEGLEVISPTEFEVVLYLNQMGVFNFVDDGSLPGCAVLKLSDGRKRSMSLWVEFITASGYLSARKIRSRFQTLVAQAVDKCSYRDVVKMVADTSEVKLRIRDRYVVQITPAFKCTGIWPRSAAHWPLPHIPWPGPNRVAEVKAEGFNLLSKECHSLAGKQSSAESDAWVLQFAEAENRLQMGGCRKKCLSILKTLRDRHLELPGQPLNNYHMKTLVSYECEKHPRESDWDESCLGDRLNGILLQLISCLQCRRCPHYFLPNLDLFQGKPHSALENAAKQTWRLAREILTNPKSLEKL

MAB21L1 [4] = target: T2, MAB21L1; assay: EMSA; 1 uM nucleic acid; EMSA: 20 mM Tris pH 8.0, 200 mM NaCl, 30 min on ice, 1% agarose gel, Gel-Red stain; settings: protein: recombinant; tags: His-MBP tag removed by TEV; label: none (Gel-Red stain); blunt

Kd (MAB21L1 [1]): 410 nM
Molecule: Nc1ccn([C@@H]2O[C@H](COP(=O)(O)OP(=O)(O)OP(=O)(O)O)[C@@H](O)[C@H]2O)c(=O)n1 [CTP]

Molecule: Nc1ncnc2c1ncn2[C@@H]1O[C@H](COP(=O)(O)OP(=O)(O)OP(=O)(O)O)[C@@H](O)[C@H]1O [ATP]
Kd (MAB21L1 [2]): 340 nM

Kd (MAB21L1 [2]): 3100 nM
Molecule: Nc1ncnc2c1ncn2[C@@H]1O[C@H](COP(=O)(O)OP(=O)(O)O)[C@@H](O)[C@H]1O [ADP]

B1: 50mer ssRNA (ssRNA)
RNA: GGAUACGUAACAACGCUUAUGCAUCGCCCCGCUACAUCCCUGAGCUGAC
apparent K (half saturation) (MAB21L1 [3]): 3.3 µM

B2: 50mer dsRNA (dsRNA)
RNA 1: GGAUACGUAACAACGCUUAUGCAUCGCCCCGCUACAUCCCUGAGCUGAC
RNA 2: GUCAGCUCAGGGAUGUAGCGGGGCGAUGCAUAAGCGUUGUUACGUAUCC
apparent K (half saturation) (MAB21L1 [4]): 5 µM

B3: 50mer ssDNA (ssDNA)
DNA: GGATACGTAACAACGCTTATGCATCGCCCCGCTACATCCCTGAGCTGAC
apparent K (half saturation) (MAB21L1 [3]): 6.7 µM

B4: 50mer dsDNA (dsDNA)
DNA 1: GGATACGTAACAACGCTTATGCATCGCCCCGCTACATCCCTGAGCTGAC
DNA 2: GTCAGCTCAGGGATGTAGCGGGGCGATGCATAAGCGTTGTTACGTATCC
apparent K (half saturation) (MAB21L1 [4]): 6 µM
